Reference: PMC3813506 (2013)
Each block holds one molecule with its values, some of them ahead of it.

Tests used:
[1] = target: Nupr1-Flag (pcDNA3-Nupr1-Flag) (UniProt O60356); assay: proximity ligation; MiaPaCa-2 cells transfected with Nupr1-Flag and MSL1-V5, treated with cisplatin (5 µM or 10 µM) for 24 h; DuoLink kit; also combined with γ-H2AX staining
Nupr1 [2] = target: T1, Nupr1 (Homo sapiens, UniProt O60356); assay: ITC; 40 µM MSL1 injected into 4 µM Nupr1 in the cell; 25°C, 10 mM acetate buffer pH 4.5; single-site binding model; heat of dilution of MSL1 used as reference
T1 chain: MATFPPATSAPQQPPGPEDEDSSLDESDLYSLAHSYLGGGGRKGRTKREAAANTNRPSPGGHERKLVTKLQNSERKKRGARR

Nupr1 [3] = assay: ITC; conditions: apparent; dH -23 kcal/mol; DNA MW assumed (10^4 kDa); chemically damaged with etoposide; ITC: 10 mM acetate pH 4.5, 25 C, 0.03 mg/ml damaged DNA; CD/fluorescence: 50 mM acetate pH 4.5, 25 C, 20 uM protein; agarose gel: 2%, 1x TAE; NMR 25 C
TRX-MSL1 (Homo sapiens) = tested on: T2, TRX-MSL1 (Homo sapiens); assay: ITC; conditions: apparent; dH 29 kcal/mol; DNA MW assumed (10^4 kDa); chemically damaged with etoposide; ITC: 10 mM acetate pH 4.5, 25 C, 0.03 mg/ml damaged DNA; CD/fluorescence: 50 mM acetate pH 4.5, 25 C, 20 uM protein; agarose gel: 2%, 1x TAE; NMR 25 C
T2 sequence: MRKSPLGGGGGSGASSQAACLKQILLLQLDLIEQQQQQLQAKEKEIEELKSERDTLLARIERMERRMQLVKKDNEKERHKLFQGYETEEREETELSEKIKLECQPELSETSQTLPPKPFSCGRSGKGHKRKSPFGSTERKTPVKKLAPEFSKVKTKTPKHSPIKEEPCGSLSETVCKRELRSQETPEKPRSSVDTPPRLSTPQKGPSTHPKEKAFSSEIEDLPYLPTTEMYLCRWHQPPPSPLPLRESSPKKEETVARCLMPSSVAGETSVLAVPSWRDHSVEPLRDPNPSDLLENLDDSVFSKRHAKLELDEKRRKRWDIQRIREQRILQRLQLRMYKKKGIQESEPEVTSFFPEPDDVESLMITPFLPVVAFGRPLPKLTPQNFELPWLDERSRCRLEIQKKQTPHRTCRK

[4] = tested on: TRX-MSL1;Nupr1 (Homo sapiens;); assay: ITC; conditions: MSL1 titrated into preformed Nupr1 + damaged-DNA complex; dH 28 kcal/mol; chemically damaged with etoposide; ITC: 10 mM acetate pH 4.5, 25 C, 0.03 mg/ml damaged DNA; CD/fluorescence: 50 mM acetate pH 4.5, 25 C, 20 uM protein; agarose gel: 2%, 1x TAE; NMR 25 C
Nupr1 [5] = target: T1, Nupr1; assay: ITC

PLA dots (PLA combined with γ-H2AX staining, cisplatin) [1]: 53 PLA dots
PLA dots per nucleus (5 µM cisplatin) (dots PLA per nucleus) [1]: 32
PLA dots per nucleus (10 µM cisplatin) (dots PLA per nucleus) [1]: 57
Molecule: MSL1-V5 (pcDNA4-MSL1-V5) (from UniProt Q68DK7 1-614) (natural protein)

Kd (Nupr1 [2]): 2800 nM
dH (Nupr1 [2]): 39 kcal/mol
Molecule: TRX-tagged MSL1 (His-tagged TRX-MSL1 fusion protein, human MSL1, 413-residue-long differentially spliced isoform) (natural protein)

Molecule: etoposide-damaged DNA
Kd (Nupr1 [3]): 400 nM
Kd (TRX-MSL1 (Homo sapiens)): 1200 nM
Kd [4]: 800 nM

Kd (Nupr1 [5]): 800 nM
B1: MSL1 (protein)
chain: MTMRSAVFKAAAAPAGGNPEQRLDYERAAALGGPEDEPGAAEAHFLPRHRKLKEPGPPLASSQGGSPAPSPAGCGGKGRGLLLPAGAAPGQQEESWGGSVPLPCPPPATKQAGIGGEPAAAGAGCSPRPKYQAVLPIQTGSLVAAAKEPTPWAGDKGGAASPAATASDPAGPPPLPLPGPPPLAPTATAGTLAASEGRWKSMRKSPLGGGGGSGASSQAACLKQILLLQLDLIEQQQQQLQAKEKEIEELKSERDTLLARIERMERRMQLVKKDNEKERHKLFQGYETEEREETELSEKIKLECQPELSETSQTLPPKPFSCGRSGKGHKRKSPFGSTERKTPVKKLAPEFSKVKTKTPKHSPIKEEPCGSLSETVCKRELRSQETPEKPRSSVDTPPRLSTPQKGPSTHPKEKAFSSEIEDLPYLSTTEMYLCRWHQPPPSPLPLRESSPKKEETVARCLMPSSVAGETSVLAVPSWRDHSVEPLRDPNPSDLLENLDDSVFSKRHAKLELDEKRRKRWDIQRIREQRILQRLQLRMYKKKGIQESEPEVTSFFPEPDDVESLMITPFLPVVAFGRPLPKLTPQNFELPWLDERSRCRLEIQKKQTPHRTCRK
modifications: Nupr1 preformed complex with etoposide-damaged DNA
